Experimental data as given in US11230581B2, “Peptides and combination of peptides for use in immunotherapy against ovarian cancer and other cancers” (Immatics Biotechnologies GmbH, priority 2015, dated 2022).

What follows are substances tested against HLA-A*02:01 (Homo sapiens, UniProt P04439, D140Y/D185E/D98H/E176V/E277Q/G131W/G231S/I119V/I121R/I166T/I218V/L300P/L318F/N151K/N90K/P208A/P217A/Q86G/Q94H/R138H/R169H/T345S) (assay: MHC binding assay (UV-ligand exchange, β2m ELISA, peptide exchange yield)). Details: binding of HLA-class I restricted peptides to HLA-A*02:01, UV-ligand exchange.
Source text: Candidate peptides for T cell based therapies according to the present invention were further tested for their MHC binding capacity (affinity). The individual peptide-MHC complexes were produced by UV-ligand exchange, where a UV-sensitive peptide is cleaved upon UV-irradiation, and exchanged with the peptide of interest as analyzed. Only peptide candidates that can effectively bind and stabilize the peptide-receptive MHC molecules prevent dissociation of the MHC complexes. To determine the yield of the exchange reaction, an ELISA was performed based on the detection of the light chain (β2m) of stabilized MHC complexes. The assay was performed as generally described in Rodenko et al. (Rodenko et al., 2006).
96 well MAXISorp plates (NUNC) were coated over night with 2 ug/ml streptavidin in PBS at room temperature, washed 4× and blocked for 1h at 37° C. in 2% BSA containing blocking buffer. […] Peptide-MHC monomers of the UV-exchange reaction were diluted 100 fold in blocking buffer. Samples were incubated for 1 h at 37° C., washed four times, incubated with 2 ug/ml HRP conjugated anti-β2m for 1h at 37° C., washed again and detected with TMB solution that is stopped with […]. Absorption was measured at 450 nm. Candidate peptides that show a high exchange yield (preferably higher than 50%, most preferred higher than 75%) are generally preferred for a generation and production of antibodies or fragments thereof, and/or T cell receptors or fragments thereof, as they show sufficient avidity to the MHC molecules and prevent dissociation of the MHC complexes.

Row | Substance | Peptide exchange (MHC class I binding score, peptide exchange yield)
1 | 491 (GLNDRSDAV; listed as Homo sapiens) [compound 491] | “++” (≥20% = ++)
2 | 514 (ILVDWLVQV; listed as Homo sapiens) [compound 514] | “+++” (≥50 = +++)
3 | 512 (SLSEIVPCL; listed as Homo sapiens) [compound 512] | “+++” (≥50 = +++)
4 | 187 (RQISIRGIVGV; listed as Homo sapiens) [compound 187] | “+++” (≥50 = +++)
5 | 254 (TLLAFIMEL; listed as Homo sapiens) [compound 254] | “+++” (≥50 = +++)
6 | 215 (QLINHLHAV; listed as Homo sapiens) [compound 215] | “+++” (≥50 = +++)
7 | 380 (TLIEDEIATI; listed as Homo sapiens) [compound 380] | “++” (≥20% = ++)
8 | 180 (FQIDPHSGLVTV; listed as Homo sapiens) [compound 180] | “++” (≥20% = ++)
9 | 221 (ALYEEGLLL; listed as Homo sapiens) [compound 221] | “++” (≥20% = ++)
10 | 589 (KLYPQLPAEI; listed as Homo sapiens) [compound 589] | “+++” (≥50 = +++)
11 | 193 (QLLDADGFLNV; listed as Homo sapiens) [compound 193] | “+++” (≥50 = +++)
12 | 125 (VQIHQVAQV; listed as Homo sapiens) [compound 125] | “+++” (≥50 = +++)
13 | 529 (LLADELITV; listed as Homo sapiens) [compound 529] | “+++” (≥50 = +++)
14 | 443 (GLWEIENNPTV; listed as Homo sapiens) [compound 443] | “+++” (≥50 = +++)
15 | 405 (ALYDVFLEV; listed as Homo sapiens) [compound 405] | “++” (≥20% = ++)
16 | 121 (GVVDPRAISVL; listed as Homo sapiens) [compound 121] | “++” (≥20% = ++)
17 | 301 (FLVEDLVDSL; listed as Homo sapiens) [compound 301] | “+++” (≥50 = +++)
18 | 391 (YVYPQRLNFV; listed as Homo sapiens) [compound 391] | “+++” (≥50 = +++)
19 | 50 (SLSELEALM; listed as Homo sapiens) [compound 50] | “+++” (≥50 = +++)
20 | 35 (KINDTIYEV; listed as Homo sapiens) [compound 35] | “+++” (≥50 = +++)
21 | 335 (YSLSSVVTV; listed as Homo sapiens) [compound 335] | “+++” (≥50 = +++)
22 | 253 (GLDAATATV; listed as Homo sapiens) [compound 253] | “++” (≥20% = ++)
23 | 315 (YLQDVVEQA; listed as Homo sapiens) [compound 315] | “+++” (≥50 = +++)
24 | 343 (SLLEVNEESTV; listed as Homo sapiens) [compound 343] | “+++” (≥50 = +++)
25 | 181 (LLWAGTAFQV; listed as Homo sapiens) [compound 181] | “+++” (≥50 = +++)
26 | 487 (LLINSVFHV; listed as Homo sapiens) [compound 487] | “+++” (≥50 = +++)
27 | 67 (TLLAEALVTV; listed as Homo sapiens) [compound 67] | “+++” (≥50 = +++)
28 | 477 (ALLPASGQIAL; listed as Homo sapiens) [compound 477] | “+++” (≥50 = +++)
